The target in one assay is 生物素标记的抗原多肽 (human) (UniProt P29400). Description: BLI (Fortebio Octet), biotinylated peptide on SA biosensor, antibody at 100 to 1.56 nM.
A further assay deals with 人IV型胶原蛋白α5链多肽 (human) (UniProt P29400). Description: indirect ELISA, plate coated with 0.5 μg/ml peptide, purified antibody in 3-fold dilutions from 1 μg/ml.

A word on the Kd: it is a measure of binding affinity in units of concentration. A higher Kd goes with weaker binding. One may read the EC50 as the concentration needed to bring the measured effect to its halfway point. Read a high EC50 as weaker potency.

B1: 18G6-2 (antibody, V domains shown)
VH: QVQLQQPGAELVKPGASVKVSCKASGYTFTNYWMHWVKQRPGQGLEWIGRIHPSDSAINYSPKFTGKATLTVDKSSSTAYMQLTSLTSEDSAVYYCAIGGYDSYWGQGTLVTVSA
VL: DIQMTQTTSSLSASLGDRVTISCRASQDISNYLNWYQQKPDGTVKLLIYYTSTLHSGVPSRFSGSGSGTDYSLTINSLAQEDIATYFCQQVNTLPWTFGGGTKLAIK
In the case of B1, in the assay with 生物素标记的抗原多肽 (human), the Kd is 3.18 nM. The EC50 with 人IV型胶原蛋白α5链多肽 (human) is 0.0221 µg/mL.

Source of the values: patent publication CN116355088A.
